In the Immune Epitope Database (IEDB) one finds Kd and IC50 data, which are given here for 37 sequences.

As usually defined, the Kd is the concentration at which binding is half-saturated. One may read the IC50 as the midpoint of a concentration-inhibition curve.

Test [1] deals with HLA-A*02:01. Briefly: IEDB peptide-MHC binding, purified MHC/competitive/radioactivity; filed as Kd, often an IC50 or EC50 that approximates it; ≥ and ≤ were set here for values at or beyond the usual limits of such assays. The note with it: source organism: Homo sapiens.
Test [2] addresses HLA-A*02:01. The experiment in a line: IEDB peptide-MHC binding, purified MHC/competitive/radioactivity; ≥ and ≤ were set here for values at or beyond the usual limits of such assays. The note with it: source organism: Homo sapiens.

Turning to AANDPIFVV, in the test with HLA-A*02:01 [1], the dissociation constant (Kd) is ≥ 10 µM.

Consider AARPDDPTL, for which the dissociation constant (Kd) with HLA-A*02:01 [1] was ≥ 10 µM. In the case of ALDLAKKRV, the Kd with HLA-A*02:01 [1] is ≥ 10 µM.

For the sequence ALPYWNFAT, the dissociation constant (Kd) with HLA-A*02:01 [1] was 1.35 µM. As to ALVGLFVLL, in the test with HLA-A*02:01 [2], the IC50 turned out to be 0.026 µM. As to ATGRNECDV, the Kd in the test with HLA-A*02:01 [1] was ≥ 10 µM. With CLERDLQRL, the Kd with HLA-A*02:01 [1] is ≥ 10 µM. For the sequence FVTWHRYHL, in the test with HLA-A*02:01 [2], the IC50 was found to be 0.943 µM. As to GAQGQFPRV, in the test with HLA-A*02:01 [1], the Kd was ≥ 10 µM. Take GTLVALVGL: the Kd with HLA-A*02:01 [1] amounted to 4.54 µM.

ITTQHWLGL: the equilibrium dissociation constant (Kd) in the test with HLA-A*02:01 [1] was ≥ 10 µM. For the sequence LAFLQYRRL, the Kd with HLA-A*02:01 [1] is ≥ 10 µM. Regarding LIGNESFAL, the concentration for half-maximal inhibition (IC50) with HLA-A*02:01 [2] turned out to be 0.385 µM. On to LLAFLQYRRL, for which the Kd with HLA-A*02:01 [1] came out at 1.52 µM. Regarding LLSCLGCKI, the Kd with HLA-A*02:01 [1] is 3.57 µM.

Regarding LLSCLGCKIL, the Kd in the test with HLA-A*02:01 [1] was ≥ 10 µM. The same measure, in the same setting: the result for LLVVMGTLV reads 1.35 µM; that for NCERKKPPV, ≥ 10 µM. Same read-out and setting: the value for NCSVYDFFV was ≥ 10 µM.

For the sequence QGRGQCTEV, the Kd with HLA-A*02:01 [1] was ≥ 10 µM. Turning to QLGYSYAIDL, the Kd in the test with HLA-A*02:01 [1] amounted to 2.63 µM. On the same count and under the same terms, the value for QMGRNSMKL was ≥ 10 µM. Consider QVMSLHNLV, for which, in the test with HLA-A*02:01 [2], the IC50 was 0.676 µM. SAANDPIFV: the Kd with HLA-A*02:01 [1] turned out to be 4.54 µM.

STFSFRNAL: the Kd with HLA-A*02:01 [1] is ≥ 10 µM. As to TLDSQVMSL, the IC50 with HLA-A*02:01 [2] came to 0.161 µM. Take TLLVVMGTL: the Kd with HLA-A*02:01 [1] is 2.63 µM.

On to TLLVVMGTLV, for which the IC50 with HLA-A*02:01 [2] was 0.357 µM. Same read-out and setting: the result for TLVALVGLFV reads 0.029 µM.

As to TTQHWLGLL, the Kd with HLA-A*02:01 [1] was ≥ 10 µM. Regarding VALVGLFVL, in the test with HLA-A*02:01 [1], the Kd turned out to be 7.14 µM.

As for VCMTVDSLV, the Kd with HLA-A*02:01 [1] was found to be 7.14 µM. Consider VLHSFTDAI, for which the IC50 with HLA-A*02:01 [2] amounted to 0.417 µM. The same measure, in the same setting: the value for VTWHRYHLL was 0.161 µM. Regarding WLGLLGPNG, the Kd with HLA-A*02:01 [1] was ≥ 10 µM. In the case of WMKRFNPPA, the Kd in the test with HLA-A*02:01 [1] is 8.33 µM. The same measure, in the same setting: the value for YTPLMETHL was ≥ 10 µM.
